Substrate in data set [1]: C[C@@H](O)[C@H]1C(=O)N2C(C(=O)O)=C(SCCNC=N)C[C@H]12
Put plainly: (§1) Kcat/Km ratio of Enterobacter cloacae AmpC.

Substrate in data set [2]: C[C@@H](O)[C@H]1C(=O)N2C(C(=O)O)=C(S[C@@H]3CN[C@H](CNS(N)(=O)=O)C3)[C@H](C)[C@H]12
The description is as §1.

Substrate in data set [3]: C[C@@H](O)[C@H]1C(=O)N2C(C(=O)O)=C(S[C@@H]3CN[C@H](C(=O)N(C)C)C3)[C@H](C)[C@H]12
Described as §1.

Substrate in data set [4]: C[C@@H](O)[C@H]1C(=O)N2C(C(=O)O)=C(SCCNC=N)C[C@H]12
Put plainly: (§2) Activity of Enterobacter cloacae AmpC.

Substrate in data set [5]: C[C@@H](O)[C@H]1C(=O)N2C(C(=O)O)=C(S[C@@H]3CN[C@H](CNS(N)(=O)=O)C3)[C@H](C)[C@H]12
The description is as §2.

Substrate in data set [6]: C[C@@H](O)[C@H]1C(=O)N2C(C(=O)O)=C(S[C@@H]3CN[C@H](C(=O)N(C)C)C3)[C@H](C)[C@H]12
The description is as §2.

Substrate in data set [7]: C[C@@H](O)[C@H]1C(=O)N2C(C(=O)O)=C(SCCNC=N)C[C@H]12
Put plainly: (§3) Activity of Escherichia coli CTX-M-15.

Substrate in data set [8]: C[C@@H](O)[C@H]1C(=O)N2C(C(=O)O)=C(S[C@@H]3CN[C@H](CNS(N)(=O)=O)C3)[C@H](C)[C@H]12
Described as §3.

Substrate in data set [9]: C[C@@H](O)[C@H]1C(=O)N2C(C(=O)O)=C(S[C@@H]3CN[C@H](C(=O)N(C)C)C3)[C@H](C)[C@H]12
The data set is described as §3.

Substrate in data set [10]: C[C@@H](O)[C@H]1C(=O)N2C(C(=O)O)=C(SCCNC=N)C[C@H]12
Particulars: Escherichia coli.

Substrate in data set [11]: C[C@@H](O)[C@H]1C(=O)N2C(C(=O)O)=C(S[C@@H]3CN[C@H](CNS(N)(=O)=O)C3)[C@H](C)[C@H]12
Particulars: Escherichia coli.

Substrate in data set [12]: C[C@@H](O)[C@H]1C(=O)N2C(C(=O)O)=C(S[C@@H]3CN[C@H](C(=O)N(C)C)C3)[C@H](C)[C@H]12
Particulars: Escherichia coli.

Substrate in data set [13]: O=C(Cc1cccs1)N[C@@H]1C(=O)N2C(C(=O)[O-])=C(C[n+]3ccccc3)CS[C@H]12
Put plainly: (§4) Activity of Pseudomonas aeruginosa OXA-10.

Substrate in data set [14]: C[C@@H](O)[C@H]1C(=O)N2C(C(=O)O)=C(SCCNC=N)C[C@H]12
The data set is described as §4.

Substrate in data set [15]: CC1(C)S[C@@H]2[C@H](NC(=O)Cc3ccccc3)C(=O)N2[C@H]1C(=O)O
Described as §4.

Substrate in data set [16]: C[C@@H](O)[C@H]1C(=O)N2C(C(=O)O)=C(S[C@@H]3CN[C@H](CNS(N)(=O)=O)C3)[C@H](C)[C@H]12
The description is as §4.

Substrate in data set [17]: CC(C)(O/N=C(\C(=O)N[C@@H]1C(=O)N2C(C(=O)[O-])=C(C[n+]3ccccc3)CS[C@H]12)c1csc(N)n1)C(=O)O
The description is as §4.

Substrate in data set [18]: C[C@@H](O)[C@H]1C(=O)N2C(C(=O)O)=C(S[C@@H]3CN[C@H](C(=O)N(C)C)C3)[C@H](C)[C@H]12
Described as §4.

Substrate in data set [19]: O=C(Cc1cccs1)N[C@@H]1C(=O)N2C(C(=O)[O-])=C(C[n+]3ccccc3)CS[C@H]12
Nature of the data set: (§5) Kcat/Km ratio of Pseudomonas aeruginosa OXA-10.

Substrate in data set [20]: CC1(C)S[C@@H]2[C@H](NC(=O)Cc3ccccc3)C(=O)N2[C@H]1C(=O)O
The data set is described as §5.

Substrate in data set [21]: C[C@@H](O)[C@H]1C(=O)N2C(C(=O)O)=C(S[C@@H]3CN[C@H](CNS(N)(=O)=O)C3)[C@H](C)[C@H]12
Put plainly: (§6) Activity of Escherichia coli TEM-1.

Substrate in data set [22]: C[C@@H](O)[C@H]1C(=O)N2C(C(=O)O)=C(S[C@@H]3CN[C@H](C(=O)N(C)C)C3)[C@H](C)[C@H]12
Described as §6.

Substrate in data set [23]: C[C@@H](O)[C@H]1C(=O)N2C(C(=O)O)=C(S[C@@H]3CN[C@H](CNS(N)(=O)=O)C3)[C@H](C)[C@H]12
Put plainly: (§7) Kcat/Km ratio of Escherichia coli TEM-1.

Substrate in data set [24]: C[C@@H](O)[C@H]1C(=O)N2C(C(=O)O)=C(S[C@@H]3CN[C@H](C(=O)N(C)C)C3)[C@H](C)[C@H]12
Described as §7.

In ChEMBL document CHEMBL1212772 one finds kcat/Km, Km and kcat data, which are given here for 4 proteins.

Where only a bound is given, the exact number is not on record here.

B1: Beta-lactamase (Enterobacter cloacae), P05364 (protein)
chain: MMRKSLCCALLLGISCSALATPVSEKQLAEVVANTITPLMKAQSVPGMAVAVIYQGKPHYYTFGKADIAANKPVTPQTLFELGSISKTFTGVLGGDAIARGEISLDDAVTRYWPQLTGKQWQGIRMLDLATYTAGGLPLQVPDEVTDNASLLRFYQNWQPQWKPGTTRLYANASIGLFGALAVKPSGMPYEQAMTTRVLKPLKLDHTWINVPKAEEAHYAWGYRDGKAVRVSPGMLDAQAYGVKTNVQDMANWVMANMAPENVADASLKQGIALAQSRYWRIGSMYQGLGWEMLNWPVEANTVVEGSDSKVALAPLPVAEVNPPAPPVKASWVHKTGSTGGFGSYVAFIPEKQIGIVMLANTSYPNPARVEAAYHILEALQ
As usually defined, the kcat/Km is the turnover number divided by the Michaelis constant. Usually Km stands for the concentration of substrate that gives half-maximal velocity. The kcat is the number of substrate molecules converted per active site and unit of time at saturation. Regarding B1, the kcat/Km in data set [1] stood at 500 M⁻¹ s⁻¹; in data set [2], 45 M⁻¹ s⁻¹; in data set [3] it was 32 M⁻¹ s⁻¹. Moreover, the Michaelis constant (Km) in data set [4] is 24 µM; in [5], 9.6 µM; in [6] it was 9.8 µM. Also, the kcat in [4] amounted to 0.012 s⁻¹; in data set [5], 0.00043 s⁻¹; in data set [6], 0.00031 s⁻¹.

B2: Beta-lactamase CTX-M (Escherichia coli), Q9EXV5 (protein)
chain: MVKKSLRQFTLMATATVTLLLGSVPLYAQTADVQQKLAELERQSGGRLGVALINTADNSQILYRADERFAMCSTSKVMAAAAVLKKSESEPNLLNQRVEIKKSDLVNYNPIAEKHVNGTMSLAELSAAALQYSDNVAMNKLIAHVGGPASVTAFARQLGDETFRLDRTEPTLNTAIPGDPRDTTSPRAMAQTLRNLTLGKALGDSQRAQLVTWMKGNTTGAASIQAGLPASWVVGDKTGSGGYGTTNDIAVIWPKDRAPLILVTYFTQPQPKAESRRDVLASAAKIVTDGL
For B2, the Km in [7] worked out at 120 µM; in data set [8] it was 7.1 µM; in data set [9] it was 11 µM. The kcat in data set [7] was 0.17 s⁻¹; in [8] it was 0.0018 s⁻¹; in data set [9], 0.0042 s⁻¹. The kcat/Km in data set [10] was 1400 M⁻¹ s⁻¹; in data set [11] it was 250 M⁻¹ s⁻¹; in [12], 380 M⁻¹ s⁻¹.

B3: Beta-lactamase OXA-10 (Pseudomonas aeruginosa), P14489 (protein)
chain: MKTFAAYVIIACLSSTALAGSITENTSWNKEFSAEAVNGVFVLCKSSSKSCATNDLARASKEYLPASTFKIPNAIIGLETGVIKNEHQVFKWDGKPRAMKQWERDLTLRGAIQVSAVPVFQQIAREVGEVRMQKYLKKFSYGNQNISGGIDKFWLEGQLRISAVNQVEFLESLYLNKLSASKENQLIVKEALVTEAAPEYLVHSKTGFSGVGTESNPGVAWWVGWVEKETEVYFFAFNMDIDNESKLPLRKSIPTKIMESEGIIGG
As for B3, the Km in data set [13] is 200 µM; in data set [15], 7.9 µM. The kcat is 16 s⁻¹ in data set [13]; < 0.014 s⁻¹ in data set [14]; 86 s⁻¹ in [15]; < 0.0073 s⁻¹ in data set [16]; < 0.0095 s⁻¹ in [17]; < 0.005 s⁻¹ in [18]. The kcat/Km came out at 80000 M⁻¹ s⁻¹ in [19] and 1.1e+07 M⁻¹ s⁻¹ in [20].

B4: Beta-lactamase TEM (Escherichia coli), P62593 (protein)
chain: MSIQHFRVALIPFFAAFCLPVFAHPETLVKVKDAEDQLGARVGYIELDLNSGKILESFRPEERFPMMSTFKVLLCGAVLSRVDAGQEQLGRRIHYSQNDLVEYSPVTEKHLTDGMTVRELCSAAITMSDNTAANLLLTTIGGPKELTAFLHNMGDHVTRLDRWEPELNEAIPNDERDTTMPAAMATTLRKLLTGELLTLASRQQLIDWMEADKVAGPLLRSALPAGWFIADKSGAGERGSRGIIAALGPDGKPSRIVVIYTTGSQATMDERNRQIAEIGASLIKHW
In the case of B4, the figures for the Km in data set [21] and in data set [22] were 5.4 µM and 15 µM, respectively. The kcat in data set [21] came out at 0.00021 s⁻¹; in data set [22] it was 0.00023 s⁻¹. The kcat/Km stood at 39 M⁻¹ s⁻¹ in [23] and 15 M⁻¹ s⁻¹ in data set [24].
